# Assay results reported in publication doi:10.1101/2022.03.18.484894, “Molecular determinants of the Bacillus subtilis chromosome origin basal unwinding system”.
# Tests used:
# DnaA R264A = DnaA R264A (Bacillus subtilis, UniProt P05648 1-446, R264A); assay: EMSA; smaller complex that enters the gel; EMSA: 13 nM scaffold, 250-1000 nM DnaA, 10 mM HEPES-KOH pH 8, 100 mM K-glutamate, 1 mM Mg acetate, 30% glycerol, 10% DMSO, 1 mM ADP or ATP, 20 C, 3 h; 6% PAGE with 5 mM MgCl2; details: protein: recombinant; tags: none after cleavage of His14-SUMO; label: 5'-Cy3 on strand 1 (oHM752); 5'-Cy5 on strand 2 (oHM590); three-strand duplex: strands 1 and 2 adjacent (nick) on 41-nt strand 3, blunt
# DnaA [1] = target: T1, DnaA (Bacillus subtilis, UniProt P05648 1-446); assay: EMSA; ATP; large complex near the well plus strand separation; EMSA: 13 nM scaffold, 250-1000 nM DnaA, 10 mM HEPES-KOH pH 8, 100 mM K-glutamate, 1 mM Mg acetate, 30% glycerol, 10% DMSO, 1 mM ADP or ATP, 20 C, 3 h; 6% PAGE with 5 mM MgCl2; details: protein: recombinant; tags: none after cleavage of His14-SUMO; label: 5'-Cy3 on strand 1 (oHM752); 5'-Cy5 on strand 2 (oHM590); three-strand duplex: strands 1 and 2 adjacent (nick) on 41-nt strand 3, blunt
# DnaA [2] = target: T1, DnaA; assay: EMSA; ATP; large complexes enter the gel poorly; EMSA: 13 nM scaffold, 250-1000 nM DnaA, 10 mM HEPES-KOH pH 8, 100 mM K-glutamate, 1 mM Mg acetate, 30% glycerol, 10% DMSO, 1 mM ADP or ATP, 20 C, 3 h; 6% PAGE with 5 mM MgCl2; details: protein: recombinant; tags: none after cleavage of His14-SUMO; label: Cy3 on annealed strand; Cy5 on separated strand; three-strand scaffold
Binder,binding result (DnaA R264A),binding result (DnaA [1]),binding result (DnaA [2])
B. subtilis WT BUS scaffold (EMSA substrate) (dsDNA) DNA 1: ACTTATCCACAAATCCACAGGCCC DNA 2: TACTATTACTTCTACTA DNA 3: TAGTAGAAGTAATAGTAGGGCCTGTGGATTTGTGGATAAGT,binds,binds,
"BUS scaffold with phosphorothioate backbone (EMSA) (XNA, phosphorothioate linkages in the DnaA-trio region; exact positions of the EMSA version not stated) DNA 1: ACTTATCCACAAATCCACAGGCC DNA 2: CTACTATTACTTCTACTA DNA 3: TAGTAGAAGTAATAGTAGGGCCTGTGGATTTGTGGATAAGT",,,binds
